Data set [1] relates to N[C@H](CCC[C@H](N)C(=O)O)C(=O)O. The data set is described as follows: purified protein. As to conditions: 100 mM TEA-HCl pH 7.8, PLP, 10 mM MgCl2, 30 C, DAP 0-10 mM.
In the next data set the test system is NC(CCCCC(=O)O)C(=O)O. The data set is described as follows: purified protein. As to conditions: similar conditions to wild-type assay; 2-APA 0-10 mM; racemic substrate.

Take “TmDAPDC (diaminopimelate decarboxylase from T. maritima) (Thermotoga maritima MSB8)”: in data set [1], the Km was 0.27 (0.06) mM and the kcat amounted to 0.075 s⁻¹.
Take “TmDAPDC (diaminopimelate decarboxylase from T. maritima) (Thermotoga maritima MSB8; E315T)”: in the data set on NC(CCCCC(=O)O)C(=O)O, the Km is listed as 0.32 (0.03) mM and the turnover number (kcat) was 0.2 s⁻¹.

For orientation: kcat means the number of substrate molecules converted per active site and unit of time at saturation.

The values above are taken from publication PMC8277567, “Thermostable D-amino acid decarboxylases derived from Thermotoga maritima diaminopimelate decarboxylase” (Protein Engineering, Design and Selection, 2021).
